Experimental data published in the RNAGym collection of RNA variant scans (doi:10.7554/elife.80360).

B1: HDV Ribozyme (parent)
chain: GGCCGGCAUGGUCCCAGCCUCCUCGCUGGCGCCGGCUGGGCAACAUUCCGAGGGGACCGUCCCCUCGGUAAUGGCGAAUGGGACCCA

Variants of: B1
Test: self-cleavage, relative activity (ratio to wild type); higher = more cleavage; co-transcriptional

Variant | self-cleavage
U69C C85U | 1.15
A71U C75G | 0.0852
U69A A71C | 0.935
U69A A71U | 1.27
A71U A78G | 0.59
A71U A78C | 0.188
A70C U79C | 0.18
A70C A78G | 0.519
A70C A78U | 0.162
A70U A87C | 0.98
A71U U72A | 0.969
A71U U72C | 0.57
A70C G76U | 1.05
U72C G74A | 0.363
U72C G74C | 0.26
U72C A77C | 0.246
U72C A78G | 0.237
A71U A77U | 0.415
A71U A77G | 0.508
U69C A70U | 0.875
U69C A70C | 1.23
U72C C86G | 0.277
U69G A70C | 1.15
A70U U79G | 0.617

Variant | self-cleavage
G68C G82C | 0.259
A71U C85G | 0.587
A70C C86U | 0.852
A70C C86A | 1.11
A71U G80C | 0.185
A71U G80U | 0.21
A71U A83U | 0.426
A71C U79C | 0.269
G68U A77G | 0.578
G68U A77C | 0.232
U69C A71C | 0.475
U69G A87G | 0.876
U69A A77G | 0.72
G68C C85A | 1.17
U69A G81U | 0.332
U72A G74U | 0.397
U72C G80A | 0.138
U69G G82U | 0.208
U69G G82C | 0.429
U69C A78U | 0.375
U69C G81U | 0.369
U72A G80U | 0.251
A70U G76C | 1
A70U G76A | 1.02

Variant | self-cleavage
A70C A71U | 0.791
U69G G74U | 0.607
U69G G74A | 0.614
G68U G76C | 1.11
U72C C84G | 0.369
U72C C84A | 0.166
U69C U72A | 0.499
U69C U72C | 0.9
U72C A83C | 0.332
U72C A83U | 0.128
A70G G76A | 0.92
U72A A78C | 0.125
A70U G73C | 0.332
A71G G82A | 0.538
A71G G82U | 0.312
A70G C86G | 1.03
G68U C85A | 0.707
A70G C85U | 1.01
A70U A77C | 0.0978
U69C C84U | 0.852
U69A A70G | 0.98
U72G A78G | 0.426
U72G A78C | 0.0831
A71G G73U | 0.291

Variant | self-cleavage
G68U C75A | 0.234
A71G A78G | 0.772
A71G A78U | 0.229
A70U A83G | 0.902
U72A | 0.698
U72C | 0.589
U72G | 0.662
U69G C75G | 0.199
G68U G74C | 0.222
G68U G74A | 0.328
A70G G74A | 0.453
A70G G74U | 0.65
A70G A77G | 0.831
A71U U79G | 0.831
U72A C75G | 0.119
U72A C75U | 0.199
U69C G74C | 0.0923
A70U G80U | 0.222
A70G U72A | 0.594
U69C A83C | 0.57
A70G G82U | 0.415
U69A G74U | 0.665
G68U U69C | 0.935
U72C U79G | 0.133

Variant | self-cleavage
A70C G80C | 0.135
A70C G80A | 0.177
G68U A83C | 0.538
U69A G73A | 0.619
U72C G76A | 0.962
U72C G76C | 0.779
U72C G76U | 1.01
G68C G74A | 0.362
G68U A78C | 0.161
A70U A71U | 0.98
A70U A71G | 1.09
U72A C86G | 0.674
A71G C84A | 1.02
A71U G73C | 0.54
A71G C86A | 1.19
A71G C86U | 0.665
U72C A87G | 0.712
U72C A87C | 0.597
A71C G80C | 0.302
A71C C85A | 0.578
A71C U72G | 0.465
A71C U72A | 0.332
A71C U72C | 0.185
G68U G81A | 0.492

Variant | self-cleavage
G68U G81U | 0.197
G68U | 0.932
U69A C75U | 0.155
A71C G76U | 0.91
A70U U72G | 0.554
A70U U72A | 0.415
U69G C84G | 0.639
U69A G82A | 0.233
U69G A83G | 0.739
A71U G82A | 0.365
U72A A77G | 0.57
G68U G80U | 0.257
U69G C86U | 0.723
A71G G80A | 0.288
A70C G74U | 0.504
A70C C75A | 0.123
U69G U72A | 0.369
U69A A78G | 0.959
U69G A78C | 0.332
G68U G73C | 0.205
G68U G73U | 0.0923
U72C C85U | 0.511
A71G A77C | 0.45
A70G A71G | 0.918

Variant | self-cleavage
A70G A71C | 0.712
U69C A77G | 0.997
A70G G80A | 0.271
A70G G80U | 0.177
G68C G81A | 0.526
A70U C84G | 0.541
U69G A77G | 1.29
A70G A78U | 0.151
U69G G76C | 0.77
A71U G74U | 0.689
A71U G74A | 0.519
U69C G80C | 0.0396
A71G A83C | 0.415
A71C G73A | 0.45
A70G C84G | 0.475
U69G G73U | 0.314
A70C U72C | 0.369
A71U G81A | 0.277
A71U A87G | 0.831
A71U A87U | 0.897
G68C U72A | 0.499
G68C U72C | 0.38
G68C U79G | 0.516
